According to patent publication US20140303084A1 (Biogen, published 2014):
Bridge positions count the residues as written; N and C are the ends. Square brackets hold non-standard residues; d marks the D form. Ends that are not written are not given here. (PEG)4 = polyethylene glycol, 4 units; Dap = NC[C@H](N)C(=O)O

Biological target: human Factor IXa (human, UniProt P00740 47-191; P00740 227-461)
Assay: cell-based or functional assay

| Binder | EC50 [µM], FXa generation assay |
| --- | --- |
| NPTCQASYCQLF | > 20 µM |
| KLTCLASYCWLF (Lys(Me)2 1) [Lys(Me)2-LTCLASYCWLF] | > 1 µM |
| QQTCQASQCQLF | > 20 µM |
| KLTCLA[Dap]YCWLF (not fully specified; printed as KLTCLA-Dpr-YCWLF; cysteine pairing not given here) [KLTCLA-Dpr-YCWLF] | > 20 µM |
| KLTCLASYCWYF | < 0.5 µM |
| KKTCVASFCQMI | > 5 µM |
| KLTCRASYCQLF | > 1 µM |
| KLTCLASYCWLF-OH (disulfide 4-9 (inferred)) [KLTCLASYCWLF-COOH] | > 1 µM |
| Ac-KLTCLASYCWLF (not fully specified; cysteine pairing not given here) [Ac-KLTCLASYCWLF] | > 1 µM |
| AQTRVARCCQLF | > 20 µM |
| QLTCLASYCGGV | > 20 µM |
| RRCPGKLQALASYCWLFWTGIA | > 1 µM |
| KLTCLASYC[Nal]LF (not fully specified; printed as KLTCLASYC-Nal-LF; cysteine pairing not given here) [KLTCLASYC-Nal-LF] | < 0.5 µM |
| QLPCLASYCGLF | > 20 µM |
| KLSCQAGQCWVF | > 1 µM |
| KLTCLSSYCWLF | > 1 µM |
| KLTCLASYCWLK | > 100 µM |
| KLTCLXSYCWLF (not fully specified; Dpr 6) [KLTCL-Dpr-SYCWLF] | > 1 µM |
| {(PEG)27-(PEG)27}-KLTCLASYCWLF (cysteine pairing not given here) [(PEG)27(PEG)27-KLTCLASYCWLF] | > 1 µM |
| QLTCLASECGLS | > 20 µM |
| NLTGRASYGWLP | > 20 µM |
| KLKCLSSECQLL | > 20 µM |
| MLTCIASYCQLG | > 20 µM |

| Binder | EC50 [µM], FXa generation assay |
| --- | --- |
| KLTCLAXYCWLF (not fully specified; HSe 7) [KLTCLA-HSe-YCWLF] | > 1 µM |
| QLTCLASYCWLF | > 20 µM |
| KLTCLASKCWLF | > 100 µM |
| {(PEG)27}-KLTCLASYCWLF (cysteine pairing not given here) [(PEG)27-KLTCLASYCWLF] | > 1 µM |
| KLTCLXSYCWLF (not fully specified; Abu 6) [KLTCL-Abu-SYCWLF] | > 1 µM |
| KLTCLASYCWLF-{(PEG)4-NH2} (cysteine pairing not given here) [KLTCLASYCWLF-(PEG)4-CONH2] | > 1 µM |
| KLTCLGSYCWLF | > 1 µM |
| KLTCQASYCWLF | > 1 µM |
| KLTCLATYCWLF | > 1 µM |
| KGRCLTSHCWLF | > 20 µM |
| EQTCLASYCWLF | > 20 µM |
| TLTCRASYCQLF | > 1 µM |
| KLTCLASYCQLV | < 0.5 µM |
| KLTCLXSYCWLF (not fully specified; Aib 6) [KLTCL-Aib-SYCWLF] | > 20 µM |
| KKTCLASYCWLF | > 50 µM |
| SLADTQLTWLARQYWLSVSEGS | > 20 µM |
| KLTCLKSYCWLF | > 1 µM |
| KLTCLASYCWXF (not fully specified; Nle 11) [KLTCLASYCW-Nle-F] | < 0.5 µM |
| [Dap]LTCLASYCWLF (not fully specified; printed as Dpr-LTCLASYCWLF; cysteine pairing not given here) [Dpr-LTCLASYCWLF] | > 1 µM |
| XLTCLASYCWLF (not fully specified; Orn 1) [Orn-LTCLASYCWLF] | < 0.5 µM |
| KLTCLASQCWLF | < 0.5 µM |
| KLTCKASYCWLF | > 1 µM |
| KLTCLASYCWLF (Lys(Me3CI) 1) [Lys(Me3CI)-LTCLASYCWLF] | > 1 µM |
